Experimental data published in paper PMC4971840.

Target: GST-CypA (human cyclophilin A fused to GST), P62937-1
Assay: His6-HIVCA pull-down assay, SDS/PAGE band densitometry
Details: n = 3, parent: est. 0.45, read off a plot

Row | Substance | other: CypA/CA ratio (*P < 0.05) | other: CypA/CA ratio
1 | wild-type HIV-1 capsid protein with an N-terminal 6-his tag (His6-HIVCA) (from UniProt P04591) A77P | 0.063 | 
2 | wild-type HIV-1 capsid protein with an N-terminal 6-his tag (His6-HIVCA) (from UniProt P04591) A78V |  | 0.43
3 | wild-type HIV-1 capsid protein with an N-terminal 6-his tag (His6-HIVCA) (from UniProt P04591) L189F |  | 0.53
4 | wild-type HIV-1 capsid protein with an N-terminal 6-his tag (His6-HIVCA) (from UniProt P04591) L189I |  | 0.36
5 | wild-type HIV-1 capsid protein with an N-terminal 6-his tag (His6-HIVCA) (from UniProt P04591) L189P |  | 0.43
6 | wild-type HIV-1 capsid protein with an N-terminal 6-his tag (His6-HIVCA) (from UniProt P04591) W23A |  | 0.26
